# Results taken from patent US20230235013A1 (MABSOLVE, published 2023).
# Changes are numbered by the printed parent chain. In names and notes the source's numbering stands.
# B1: anti-CD20 human IgG1 L234H/L235H/G236R (antibody)
# heavy: QVQLQQPGAELVKPGASVKMSCKASGYTFTSYNMHWVKQTPGRGLEWIGAIYPGNGDTSYNQKFKGKATLTADKSSSTAYMQLSSLTSEDSAVYYCARSTYYGGDWYFNVWGAGTTVTVSSASTKGPSVFPLAPSSKSTSGGTAALGCLVKDYFPEPVTVSWNSGALTSGVHTFPAVLQSSGLYSLSSVVTVPSSSLGTQTYICNVNHKPSNTKVDKKVEPKSCDKTHTCPPCPAPEHHRGPSVFLFPPKPKDTLMISRTPEVTCVVVDVSHEDPEVKFNWYVDGVEVHNAKTKPREEQYNSTYRVVSVLTVLHQDWLNGKEYKCKVSNKALPAPIEKTISKAKGQPREPQVYTLPPSRDELTKNQVSLTCLVKGFYPSDIAVEWESNGQPENNYKTTPPVLDSDGSFFLYSKLTVDKSRWQQGNVFSCSVMHEALHNHYTQKSLSLSPGK
# light: QIVLSQSPAILSASPGEKVTMTCRASSSVSYIHWFQQKPGSSPKPWIYATSNLASGVPVRFSGSGSGTSYSLTISRVEAEDAATYYCQQWTSNPPTFGGGTKLEIKRTVAAPSVFIFPPSDEQLKSGTASVVCLLNNFYPREAKVQWKVDNALQSGNSQESVTEQDSKDSTYSLSSTLTLSKADYEKHKVYACEVTHQGLSSPVTKSFNRGEC
# notes: also called 1-66; copies: 2 + 2
# B2: anti-CD20 human IgG1 L234H/L235M/G236R (antibody)
# heavy: B1 heavy with H239M
# light: B1 light
# notes: also called 1-70; copies: 2 + 2
# B3: anti-CD20 human IgG1 L234K/L235I/G236R (antibody)
# heavy: B1 heavy with H238K, H239I
# light: B1 light
# notes: also called 1-82; copies: 2 + 2
# B4: anti-CD20 human IgG1 L234H/L235R/G236R (antibody)
# heavy: B1 heavy with H239R
# light: B1 light
# notes: also called 1-73; copies: 2 + 2
# B5: anti-CD20 human IgG1 L234N/L235A/G236R (antibody)
# heavy: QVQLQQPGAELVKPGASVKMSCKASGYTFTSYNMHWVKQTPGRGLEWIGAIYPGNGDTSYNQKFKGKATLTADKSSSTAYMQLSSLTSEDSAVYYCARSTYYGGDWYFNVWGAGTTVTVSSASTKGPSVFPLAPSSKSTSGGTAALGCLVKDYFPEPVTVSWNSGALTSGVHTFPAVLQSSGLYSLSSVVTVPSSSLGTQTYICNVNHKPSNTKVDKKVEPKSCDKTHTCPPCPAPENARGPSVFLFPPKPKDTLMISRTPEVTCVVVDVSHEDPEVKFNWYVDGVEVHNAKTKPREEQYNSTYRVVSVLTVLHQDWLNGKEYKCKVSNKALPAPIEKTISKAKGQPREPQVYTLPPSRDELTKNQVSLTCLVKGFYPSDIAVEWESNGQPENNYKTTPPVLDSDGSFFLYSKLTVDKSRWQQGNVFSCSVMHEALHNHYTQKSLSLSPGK
# light: B1 light
# notes: also called 1-92; copies: 2 + 2
# B6: anti-CD20 human IgG1 L234N/L235H/G236R (antibody)
# heavy: B1 heavy with H238N
# light: B1 light
# notes: also called 1-96; copies: 2 + 2
# B7: anti-CD20 human IgG1 L234H/L235S/G236R (antibody)
# heavy: B1 heavy with H239S
# light: B1 light
# notes: also called 1-74; 2-21; copies: 2 + 2
# B8: anti-CD20 human IgG1 L234N/L235D/G236R (antibody)
# heavy: B1 heavy with H238N, H239D
# light: B1 light
# notes: also called 1-93; copies: 2 + 2
# B9: anti-CD20 human IgG1 L234H/L235Q/G236R (antibody)
# heavy: B1 heavy with H239Q
# light: B1 light
# notes: also called 1-72; copies: 2 + 2
# B10: anti-CD20 human IgG1 L234H/L235K/G236R (antibody)
# heavy: B1 heavy with H239K
# light: B1 light
# notes: also called 1-68; copies: 2 + 2
# B11: anti-CD20 human IgG1 L234K/L235A/G236R (antibody)
# heavy: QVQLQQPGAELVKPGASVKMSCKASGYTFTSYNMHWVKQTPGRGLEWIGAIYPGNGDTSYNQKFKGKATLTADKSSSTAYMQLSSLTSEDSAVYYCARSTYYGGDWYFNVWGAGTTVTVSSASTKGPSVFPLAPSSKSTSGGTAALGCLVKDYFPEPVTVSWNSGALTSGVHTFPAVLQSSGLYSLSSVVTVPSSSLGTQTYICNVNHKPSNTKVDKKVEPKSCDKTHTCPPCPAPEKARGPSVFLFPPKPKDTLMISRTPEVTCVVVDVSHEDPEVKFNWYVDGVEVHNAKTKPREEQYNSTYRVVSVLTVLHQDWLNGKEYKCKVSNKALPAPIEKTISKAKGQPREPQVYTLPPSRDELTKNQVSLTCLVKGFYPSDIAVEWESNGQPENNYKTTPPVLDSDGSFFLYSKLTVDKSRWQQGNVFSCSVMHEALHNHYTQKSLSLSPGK
# light: B1 light
# notes: also called 1-77; copies: 2 + 2
# B12: anti-CD20 human IgG1 L234K/L235Q/G236R (antibody)
# heavy: B1 heavy with H238K, H239Q
# light: B1 light
# notes: also called 1-87; 2-22; copies: 2 + 2
# B13: anti-CD20 human IgG1 L234K/L235M/G236R (antibody)
# heavy: B1 heavy with H238K, H239M
# light: B1 light
# notes: also called 1-85; copies: 2 + 2
# B14: anti-CD20 human IgG1 L234N/G236R (antibody)
# heavy: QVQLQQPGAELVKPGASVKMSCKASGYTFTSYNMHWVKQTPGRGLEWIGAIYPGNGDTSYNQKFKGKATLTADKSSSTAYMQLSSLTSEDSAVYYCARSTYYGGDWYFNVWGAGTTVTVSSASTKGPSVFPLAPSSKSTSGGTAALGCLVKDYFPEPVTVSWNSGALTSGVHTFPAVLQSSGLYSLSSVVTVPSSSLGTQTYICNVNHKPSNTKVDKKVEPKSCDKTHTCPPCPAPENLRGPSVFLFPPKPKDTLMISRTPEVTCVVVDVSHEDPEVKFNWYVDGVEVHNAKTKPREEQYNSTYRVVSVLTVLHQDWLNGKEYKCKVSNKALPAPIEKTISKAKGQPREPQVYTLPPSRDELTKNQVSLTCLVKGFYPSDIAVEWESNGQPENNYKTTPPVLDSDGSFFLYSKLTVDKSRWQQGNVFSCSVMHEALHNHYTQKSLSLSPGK
# light: B1 light
# notes: also called 1-99; copies: 2 + 2
# B15: anti-CD20 human IgG1 L234K/L235E/G236R (antibody)
# heavy: B1 heavy with H238K, H239E
# light: B1 light
# notes: also called 1-79; copies: 2 + 2
# B16: anti-CD20 human IgG1 L234N/L235G/G236R (antibody)
# heavy: B1 heavy with H238N, H239G
# light: B1 light
# notes: also called 1-95; copies: 2 + 2
# B17: anti-CD20 human IgG1 L234K/L235K/G236R (antibody)
# heavy: B1 heavy with H238K, H239K
# light: B1 light
# notes: also called 1-83; copies: 2 + 2
# B18: anti-CD20 human IgG1 L234H/L235V/G236R (antibody)
# heavy: B1 heavy with H239V
# light: B1 light
# notes: also called 1-76; copies: 2 + 2
# B19: anti-CD20 human IgG1 L234H/L235T/G236R (antibody)
# heavy: B1 heavy with H239T
# light: B1 light
# notes: also called 1-75; copies: 2 + 2
# B20: anti-CD20 human IgG1 L234K/L235H/G236R (antibody)
# heavy: B1 heavy with H238K
# light: B1 light
# notes: also called 1-81; copies: 2 + 2
# B21: anti-CD20 human IgG1 L234H/L235N/G236R (antibody)
# heavy: B1 heavy with H239N
# light: B1 light
# notes: also called 1-71; copies: 2 + 2
# B22: anti-CD20 human IgG1 L234K/G236R (antibody)
# heavy: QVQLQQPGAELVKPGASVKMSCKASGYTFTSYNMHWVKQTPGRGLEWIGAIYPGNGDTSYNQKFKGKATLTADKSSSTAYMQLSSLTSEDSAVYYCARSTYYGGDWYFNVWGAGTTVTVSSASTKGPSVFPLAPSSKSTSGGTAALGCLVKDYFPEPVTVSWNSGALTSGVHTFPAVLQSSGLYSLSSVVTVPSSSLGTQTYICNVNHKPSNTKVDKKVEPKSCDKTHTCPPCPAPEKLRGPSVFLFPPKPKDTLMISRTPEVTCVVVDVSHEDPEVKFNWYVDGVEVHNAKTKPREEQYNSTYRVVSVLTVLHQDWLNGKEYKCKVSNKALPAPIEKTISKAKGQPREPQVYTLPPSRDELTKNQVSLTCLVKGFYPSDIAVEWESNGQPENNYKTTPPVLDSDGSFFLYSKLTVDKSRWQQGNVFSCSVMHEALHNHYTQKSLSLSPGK
# light: B1 light
# notes: also called 1-84; copies: 2 + 2
# B23: anti-CD20 human IgG1 L234K/L235G/G236R (antibody)
# heavy: B1 heavy with H238K, H239G
# light: B1 light
# notes: also called 1-80; copies: 2 + 2
# B24: anti-CD20 human IgG1 L234K/L235N/G236R (antibody)
# heavy: B1 heavy with H238K, H239N
# light: B1 light
# notes: also called 1-86; copies: 2 + 2
# B25: anti-CD20 human IgG1 L234N/L235E/G236R (antibody)
# heavy: B1 heavy with H238N, H239E
# light: B1 light
# notes: also called 1-94; copies: 2 + 2
# Molecular target: T1, Histidine-tagged recombinant human FcγRI (CD64) (human, UniProt P12314 16-288)
# T1 construct: bought; also called Sino Biological Cat. No. 12056-H08H
# Experiment: SPR, culture supernatant, captured His-FcγRI;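 note: biacore T200 SPR at 25 °C, anti-His capture, supernatants of HEK293 cells expressing IgG1 Fc variants injected 1 min, reference-subtracted response read 55 s after injection start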
row,Mean binding response,Binder
1,36.3 RU,B1
2,31.3 RU,B2
3,30.9 RU,B3
4,35.3 RU,B4
5,22.3 RU,B5
6,17.7 RU,B6
7,10.9 RU,B7
8,13.4 RU,B8
9,33.3 RU,B9
10,29.2 RU,B10
11,23 RU,B11
12,8.4 RU,B12
13,23.9 RU,B13
14,22.3 RU,B14
15,29.9 RU,B15
16,22.1 RU,B16
17,37.6 RU,B17
18,25.6 RU,B18
19,44.9 RU,B19
20,25.3 RU,B20
21,24.6 RU,B21
22,31.2 RU,B22
23,27.4 RU,B23
24,24.8 RU,B24
25,16.4 RU,B25
